Values quoted from earlier work, collected in paper PMC10560217.
Read-outs that look alike come from different tables or passages of the source.

Assays:
hIR ECD (Homo sapiens) = hIR ECD (Homo sapiens) (UniProt P06213)
[1] = target: dmIR (Drosophila melanogaster) (UniProt P09208)
[2] = target: dmIR (Drosophila melanogaster) (UniProt P09208); remark: listed apart in the source
[3] = target: dmIR (Drosophila melanogaster) (UniProt P09208); remark: listed apart in the source

dmIR (Drosophila melanogaster), sequence (P09208 44-1310): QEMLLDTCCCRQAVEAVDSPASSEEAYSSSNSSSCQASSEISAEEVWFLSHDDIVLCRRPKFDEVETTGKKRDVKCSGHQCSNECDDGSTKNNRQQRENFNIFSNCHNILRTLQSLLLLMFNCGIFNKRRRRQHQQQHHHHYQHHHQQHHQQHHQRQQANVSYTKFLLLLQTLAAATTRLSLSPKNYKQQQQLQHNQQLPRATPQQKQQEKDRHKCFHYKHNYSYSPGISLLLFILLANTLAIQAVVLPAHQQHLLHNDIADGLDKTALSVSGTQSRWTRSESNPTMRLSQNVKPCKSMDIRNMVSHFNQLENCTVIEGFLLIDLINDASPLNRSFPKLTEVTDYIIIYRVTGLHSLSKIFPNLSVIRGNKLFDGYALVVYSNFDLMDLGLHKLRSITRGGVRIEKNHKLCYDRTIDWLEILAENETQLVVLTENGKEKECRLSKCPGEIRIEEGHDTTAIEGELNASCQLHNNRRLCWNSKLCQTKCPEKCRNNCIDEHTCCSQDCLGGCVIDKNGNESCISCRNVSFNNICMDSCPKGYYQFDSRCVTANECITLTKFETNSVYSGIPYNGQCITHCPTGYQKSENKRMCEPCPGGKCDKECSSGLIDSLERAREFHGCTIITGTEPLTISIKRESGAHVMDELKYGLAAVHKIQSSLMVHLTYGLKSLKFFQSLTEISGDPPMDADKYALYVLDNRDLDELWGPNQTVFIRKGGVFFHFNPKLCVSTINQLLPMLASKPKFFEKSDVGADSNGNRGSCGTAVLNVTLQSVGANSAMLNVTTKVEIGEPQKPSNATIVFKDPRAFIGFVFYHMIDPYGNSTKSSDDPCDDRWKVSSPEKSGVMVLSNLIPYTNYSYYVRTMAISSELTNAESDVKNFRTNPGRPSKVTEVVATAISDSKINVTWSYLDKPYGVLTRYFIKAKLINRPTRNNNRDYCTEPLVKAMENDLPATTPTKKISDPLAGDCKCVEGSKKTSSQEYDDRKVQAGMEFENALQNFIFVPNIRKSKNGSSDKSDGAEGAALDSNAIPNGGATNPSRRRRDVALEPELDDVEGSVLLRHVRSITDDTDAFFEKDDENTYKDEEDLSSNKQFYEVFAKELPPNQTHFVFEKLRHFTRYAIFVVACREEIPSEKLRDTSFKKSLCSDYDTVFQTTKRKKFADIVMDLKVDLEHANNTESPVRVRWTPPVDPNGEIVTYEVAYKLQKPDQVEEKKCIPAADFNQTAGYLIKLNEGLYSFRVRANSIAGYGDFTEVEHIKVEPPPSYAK
DILP5 DB, sequence (Q7KUD5 23-50): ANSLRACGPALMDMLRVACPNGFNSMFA
DILP5 DB, sequence (Q7KUD5 84-108): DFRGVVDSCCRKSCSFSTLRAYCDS
DILP5 C4, sequence (Q7KUD5 87-108): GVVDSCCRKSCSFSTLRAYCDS
insulin, sequence (P01308 90-110): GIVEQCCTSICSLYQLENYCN

**Q.** For insulin (from UniProt P01308), which Kd (hIR ECD (Homo sapiens)) is on record?
**A.** The Kd was 30 nM.

**Q.** With DILP5 DB (from UniProt Q7KUD5) as the substance, how does the Kd [1] read?
**A.** Its Kd is 0.35 nM.

**Q.** For hIGF-1 (from UniProt P05019), which Kd [2] is on record?
**A.** The Kd was 5910 nM.

**Q.** With DILP5 C4 (from UniProt Q7KUD5) as the substance, how does the Kd [3] read?
**A.** Its Kd is 0.76 nM.
